Measured values as given in article PMC10491584, “Structural convergence endows nuclear transport receptor Kap114p with a transcriptional repressor function toward TATA-binding protein” (Nature Communications, 2023).

Assays:
Conditions in all cases: both partners purified
[1] = molecular target: T1, Kap114p (Q597A) (S. cerevisiae, UniProt P53067 1-1004, Q597A); test: ITC; MicroCal iTC200, 25 °C, 20 mM HEPES pH 7.4, 150 mM NaCl; low concentration: 25 µM wild type or mutant Kap114p in the sample cell, 250 µM wild type or mutant yTBPC in the syringe; triplicate
T1 construct: Kap114p, S. cerevisiae, full length with Q597A; also called GST-Kap114p (Q597); source: E. coli Rosetta, purified (GST resin, MonoQ, Superdex 200)
T1 sequence (looked up): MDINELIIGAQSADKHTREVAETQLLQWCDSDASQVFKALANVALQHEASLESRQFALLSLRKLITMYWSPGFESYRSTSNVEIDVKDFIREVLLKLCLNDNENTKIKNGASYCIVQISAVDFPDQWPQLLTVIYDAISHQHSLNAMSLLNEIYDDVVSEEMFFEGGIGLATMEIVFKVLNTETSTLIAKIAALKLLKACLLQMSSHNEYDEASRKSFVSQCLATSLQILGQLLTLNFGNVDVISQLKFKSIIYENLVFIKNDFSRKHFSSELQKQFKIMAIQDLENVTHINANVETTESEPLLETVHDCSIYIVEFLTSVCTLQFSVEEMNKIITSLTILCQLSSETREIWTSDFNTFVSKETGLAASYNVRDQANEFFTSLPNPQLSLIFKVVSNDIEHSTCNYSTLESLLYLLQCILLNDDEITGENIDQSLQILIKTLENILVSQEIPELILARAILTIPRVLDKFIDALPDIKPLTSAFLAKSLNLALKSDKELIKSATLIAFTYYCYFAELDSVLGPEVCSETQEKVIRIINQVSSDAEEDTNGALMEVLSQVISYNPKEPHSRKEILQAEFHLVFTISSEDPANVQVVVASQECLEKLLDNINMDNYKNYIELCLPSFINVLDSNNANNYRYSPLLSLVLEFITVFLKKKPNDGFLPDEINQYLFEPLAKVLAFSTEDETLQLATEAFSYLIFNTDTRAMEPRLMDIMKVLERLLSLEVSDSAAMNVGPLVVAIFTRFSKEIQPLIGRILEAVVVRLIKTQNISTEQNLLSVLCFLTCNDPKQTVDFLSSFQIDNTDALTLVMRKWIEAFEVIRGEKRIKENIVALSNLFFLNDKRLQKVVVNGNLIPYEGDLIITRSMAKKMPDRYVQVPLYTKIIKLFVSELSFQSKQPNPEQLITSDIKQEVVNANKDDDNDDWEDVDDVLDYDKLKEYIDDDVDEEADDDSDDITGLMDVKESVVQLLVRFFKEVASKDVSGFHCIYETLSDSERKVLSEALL

[2] = molecular target: T2, Kap114p wild type (S. cerevisiae, UniProt P53067 1-1004); test: ITC; MicroCal iTC200, 25 °C, 20 mM HEPES pH 7.4, 150 mM NaCl; high concentration: 50 µM wild type or mutant Kap114p in the sample cell, 500 µM wild type or mutant yTBPC in the syringe; triplicate
T2 construct: Kap114p (karyopherin-β), S. cerevisiae, full length, amplified from total genomic DNA; GST tag followed by a PreScission site (modified pGEX6p1); PreScission protease added during dialysis; also called Kap114p WT; GST-Kap114p (plasmid pGEX-6P-1-Kap114); source: E. coli Rosetta, purified (GST resin, MonoQ, Superdex 200)
T2 sequence (looked up): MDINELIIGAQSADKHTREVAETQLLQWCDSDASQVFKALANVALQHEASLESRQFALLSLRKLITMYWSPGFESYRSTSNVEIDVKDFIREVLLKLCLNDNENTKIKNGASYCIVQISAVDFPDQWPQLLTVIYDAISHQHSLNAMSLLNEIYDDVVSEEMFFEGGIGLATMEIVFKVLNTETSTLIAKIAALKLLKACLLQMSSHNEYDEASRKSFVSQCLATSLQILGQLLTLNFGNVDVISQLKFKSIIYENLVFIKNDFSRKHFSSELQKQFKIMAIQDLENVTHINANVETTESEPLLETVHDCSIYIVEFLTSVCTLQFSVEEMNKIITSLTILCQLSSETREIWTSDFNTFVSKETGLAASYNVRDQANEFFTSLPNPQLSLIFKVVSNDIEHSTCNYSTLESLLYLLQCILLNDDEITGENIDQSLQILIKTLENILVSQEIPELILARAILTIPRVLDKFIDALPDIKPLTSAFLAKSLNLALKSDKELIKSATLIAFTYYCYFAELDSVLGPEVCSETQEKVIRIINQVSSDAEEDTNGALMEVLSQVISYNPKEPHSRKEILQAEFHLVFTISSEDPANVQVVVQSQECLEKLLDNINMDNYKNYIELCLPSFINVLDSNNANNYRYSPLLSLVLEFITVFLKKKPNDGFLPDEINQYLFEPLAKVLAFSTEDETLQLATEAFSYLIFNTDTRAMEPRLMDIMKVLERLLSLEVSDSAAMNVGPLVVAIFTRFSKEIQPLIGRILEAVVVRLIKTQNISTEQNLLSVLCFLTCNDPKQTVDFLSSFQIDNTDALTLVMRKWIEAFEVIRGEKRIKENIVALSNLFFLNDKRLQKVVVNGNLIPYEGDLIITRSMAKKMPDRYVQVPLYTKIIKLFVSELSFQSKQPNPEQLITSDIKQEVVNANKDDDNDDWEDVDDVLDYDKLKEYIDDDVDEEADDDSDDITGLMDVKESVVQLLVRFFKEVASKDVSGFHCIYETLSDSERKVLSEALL

[3] = molecular target: T1, Kap114p (Q597A); test: as above
[4] = molecular target: T3, Kap114p (Y370A) (S. cerevisiae, UniProt P53067 1-1004, Y370A); test: ITC; MicroCal iTC200, 25 °C, 20 mM HEPES pH 7.4, 150 mM NaCl; low concentration: 25 µM wild type or mutant Kap114p in the sample cell, 250 µM wild type or mutant yTBPC in the syringe; triplicate
T3 construct: Kap114p, S. cerevisiae, full length with Y370A; also called GST-Kap114p (Y370A); source: E. coli Rosetta, purified (GST resin, MonoQ, Superdex 200)
T3 sequence (looked up): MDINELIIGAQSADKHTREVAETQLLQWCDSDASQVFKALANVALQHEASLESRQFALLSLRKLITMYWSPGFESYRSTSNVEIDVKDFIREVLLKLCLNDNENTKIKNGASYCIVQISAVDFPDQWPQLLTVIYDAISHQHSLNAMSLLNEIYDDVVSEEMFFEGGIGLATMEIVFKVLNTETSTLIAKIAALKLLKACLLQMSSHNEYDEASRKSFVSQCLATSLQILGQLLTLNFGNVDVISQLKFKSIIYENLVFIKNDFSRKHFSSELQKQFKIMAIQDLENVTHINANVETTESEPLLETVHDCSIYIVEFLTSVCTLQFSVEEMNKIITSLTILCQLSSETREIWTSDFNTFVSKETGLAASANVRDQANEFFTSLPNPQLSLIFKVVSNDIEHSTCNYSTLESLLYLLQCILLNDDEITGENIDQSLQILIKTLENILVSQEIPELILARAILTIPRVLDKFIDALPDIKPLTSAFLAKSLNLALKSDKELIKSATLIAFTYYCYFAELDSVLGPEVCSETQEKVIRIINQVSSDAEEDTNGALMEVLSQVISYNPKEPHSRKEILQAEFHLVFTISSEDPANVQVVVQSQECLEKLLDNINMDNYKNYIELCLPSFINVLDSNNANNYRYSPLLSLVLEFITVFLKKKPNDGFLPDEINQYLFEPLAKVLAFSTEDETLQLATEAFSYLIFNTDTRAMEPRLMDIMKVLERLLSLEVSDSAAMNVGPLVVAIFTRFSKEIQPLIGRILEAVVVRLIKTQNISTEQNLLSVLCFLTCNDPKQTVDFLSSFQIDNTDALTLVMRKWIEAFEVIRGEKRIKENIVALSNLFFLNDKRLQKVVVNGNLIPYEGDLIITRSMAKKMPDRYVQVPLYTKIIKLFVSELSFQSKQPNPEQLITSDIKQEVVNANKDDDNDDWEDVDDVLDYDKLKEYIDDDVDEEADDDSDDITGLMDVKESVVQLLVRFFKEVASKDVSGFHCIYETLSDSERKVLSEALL

Row | Binder | Kd [1] [nM] | Kd [2] [nM] | Kd [3] [nM] | Kd [4] [nM]
1 | yTBP^C (R141A) (domain or fragment, S. cerevisiae, UniProt P13393 61-240, looked up, also called yTBP(R141A); His-yTBP (61-240) (R141A); source: E. coli Rosetta, purified (Ni-NTA, HiTrap SP, Superdex 75); not shown: His6, N-terminal, cleaved) SGIVPTLQNIVATVTLGCRLDLKTVALHARNAEYNPKRFAAVIMRIREPKTTALIFASGKMVVTGAKSEDDSKLASRKYAAIIQKIGFAAKFTDFKIQNIVGSCDVKFPIRLEGLAFSHGTFSSYEPELFPGLIYRMVKPKIVLLIFVSGKIVLTGAKQREEIYQAFEAIYPVLSEFRKM | 165 | 255 | 316 | –
2 | yTBP^C (N91A) (domain or fragment, S. cerevisiae, UniProt P13393 61-240, looked up, also called yTBP(N91A); His-yTBP (61-240) (N91A); source: E. coli Rosetta, purified (Ni-NTA, HiTrap SP, Superdex 75); not shown: His6, N-terminal, cleaved) SGIVPTLQNIVATVTLGCRLDLKTVALHARAAEYNPKRFAAVIMRIREPKTTALIFASGKMVVTGAKSEDDSKLASRKYARIIQKIGFAAKFTDFKIQNIVGSCDVKFPIRLEGLAFSHGTFSSYEPELFPGLIYRMVKPKIVLLIFVSGKIVLTGAKQREEIYQAFEAIYPVLSEFRKM | – | 28.9 | – | 938
